Laboratory results from patent US20150368329A1 (ONCOMED PHARMACEUTICALS, published 2015).
Where a chain is given by its changes, count along the chain named. One block for each binder: values may come before it.

Columns and labels:
[1] = biological target: recombinant mouse VEGF165 (mouse) (UniProt Q00731); test: SPR (Biacore 2000); biotinylated VEGF165 on streptavidin chip, antibody injected 100-0.78 nM
biotin-DLL4-hFc = biological target: T1, biotin-DLL4-hFc (UniProt Q9NR61 27-522, limits assumed, biotinylated); test: bridging ELISA: the signal needs binding to both coated VEGF and biotin-DLL4-hFc (2 ug/ml); antibody concentration varied
T1 construct: not shown: human Fc ('hFc')
T1 sequence (Q9NR61 27-522 limits assumed): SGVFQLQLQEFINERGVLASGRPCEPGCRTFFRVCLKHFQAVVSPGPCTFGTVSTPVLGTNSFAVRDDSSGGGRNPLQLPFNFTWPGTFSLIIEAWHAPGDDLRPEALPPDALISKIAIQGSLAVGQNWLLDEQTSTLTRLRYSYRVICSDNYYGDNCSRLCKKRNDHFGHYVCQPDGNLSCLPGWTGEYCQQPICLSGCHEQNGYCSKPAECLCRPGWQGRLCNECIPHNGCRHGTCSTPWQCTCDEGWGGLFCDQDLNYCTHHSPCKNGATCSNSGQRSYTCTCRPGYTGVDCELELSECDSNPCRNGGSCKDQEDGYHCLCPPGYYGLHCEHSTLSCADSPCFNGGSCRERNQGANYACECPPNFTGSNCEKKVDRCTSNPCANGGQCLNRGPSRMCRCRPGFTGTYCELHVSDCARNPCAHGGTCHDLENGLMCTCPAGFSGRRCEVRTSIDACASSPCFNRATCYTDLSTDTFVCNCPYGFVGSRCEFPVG
Experimental: (§1) FIG. 5. Bispecific antibody ELISA. Bispecific antibodies 219R45-MB-21M18, 219R45-MB-21R79, 219R45-MB-21R75, and 219R45-MB-21R83 were diluted in blocking buffer (lx PBS, 0.1% gelatin, 0.1% Polysorbate-20, pH 7.4) containing 2 μg/ml biotin-DLL4-hFc. 219R45-MB-21M18 (open circles), 219R45-MB-21R79 (open squares), 219R45-MB-21R75 (open triangles), and 219R45-MB-21R83 (open diamonds) in comparison to a reference anti-VEGF/anti-DLL4 bispecific antibody (solid circles) is shown. The antibodies were serially diluted 3-fold from 500 ng/ml to 0.008 ng/ml. The antibody samples were incubated for 2 hours in blocking buffer containing the biotin-DLL4-hFc. After incubation, the antibody samples were transferred to a VEGF-coated assay plate (100 ul/well) and incubated for 2 hours. Streptavidin-HRP was added to each well and incubated for 1 hr. TMB substrate was added to the wells with a 10 minute color development and the reaction was stopped with 2M sulfuric acid. Absorbance was read at 450-650 nm and the data analyzed using the 4-parameter fit within the Softmax Pro analysis program.
(§2) VEGF (ATGEN, South Korea) was coated onto Nunc maxisorb plates at 2ug/ml (100 μl/well) and incubated overnight at 2-8° C. Bispecific antibodies 219R45-MB-21M18, 219R45-MB-21R79, 219R45-MB-21R75, and 219R45-MB-21RS3 were diluted in blocking buffer (1×PBS, 0.1% gelatin, 0.1% Polysorbate-20, pH 7.4) containing 2 μg/ml biotin-DLL4-hFc. The antibodies were serially diluted 3-fold from 500 ng/ml to 0.008 ng/ml. The antibody samples were incubated for 2 hours in blocking buffer containing the biotin-DLL4-hFc. After incubation, the antibody samples were transferred to the VEGF-coated assay plate (100 μl/well) and incubated for 2 hours. Streptavidin-HRP (Jackson ImmunoResearch, West Grove, Pa.) was added to each well and incubated for 1 hr. TMB substrate was added to the wells with a 10 minute color development and the reaction was stopped with 2M sulfuric acid. Absorbance was read at 450-650 nm and the data analyzed using the 4-parameter fit within the Softmax Pro analysis program (Molecular Devices, Sunnyvale, Calif.).

[2] = biological target: VEGF (ATGEN, South Korea) coated on ELISA plates (UniProt P15692-4 27-191, limits assumed); test: as above
VEGF (ATGEN, South Korea) coated on ELISA plates, sequence (P15692 other isoform, or with tags, fused parts or gaps limits assumed): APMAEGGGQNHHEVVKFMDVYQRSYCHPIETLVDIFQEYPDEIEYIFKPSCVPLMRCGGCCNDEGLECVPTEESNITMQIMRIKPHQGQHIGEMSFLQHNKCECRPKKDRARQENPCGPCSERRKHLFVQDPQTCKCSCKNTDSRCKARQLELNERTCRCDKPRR
Experimental: as §1, §2

Kd [1]: 22.9 nM
B1: anti-VEGF antibody 219R45 (parental, IgG format) (antibody, V domains shown)
VH: QVQLVQSGAEVKKPGASVKVSCKASGYTFTNYWMHWVRQAPGQGLEWMGDINPSNGRTSYKEKFKRRVTLSVDKSSSTAYMELSSLRSEDTAVYFCTIHYDDKYYPLMDYWGQGTLVTVSS
VL: DIVMTQSPDSLAVSLGERATISCRASESVDNYGISFMKWFQQKPGQPPKLLIYAASNQGSGVPDRFSGSGSGTDFTLTISSLQAEDVAVYYCQQSKEVPWTFGGGTKVEIKR

EC50 (read off the curve) (biotin-DLL4-hFc): ~4 ng/mL
EC50 (read off the curve) [2]: ~4 ng/mL
Kd [1]: 25.5 nM
B2: anti-VEGF/anti-DLL4 bispecific antibody 219R45-MB-21M18 (bispecific antibody, human IgG2)
heavy 1: QVQLVQSGAEVKKPGASVKVSCKASGYTFTNYWMHWVRQAPGQGLEWMGDINPSNGRTSYKEKFKRRVTLSVDKSSSTAYMELSSLRSEDTAVYFCTIHYDDKYYPLMDYWGQGTLVTVSSASTKGPSVFPLAPCSRSTSESTAALGCLVKDYFPEPVTVSWNSGALTSGVHTFPAVLQSSGLYSLSSVVTVPSSNFGTQTYTCNVDHKPSNTKVDKTVERKCCVECPPCPAPPVAGPSVFLFPPKPKDTLMISRTPEVTCVVVDVSHEDPEVQFNWYVDGVEVHNAKTKPREEQFNSTFRVVSVLTVVHQDWLNGKEYKCKVSNKGLPAPIEKTISKTKGQPREPQVYTLPPSREKMTKNQVSLTCLVKGFYPSDIAVEWESNGQPENNYKTTPPMLKSDGSFFLYSKLTVDKSRWQQGNVFSCSVMHEALHNHYTQKSLSLSPGK
heavy 2: QVQLVQSGAEVKKPGASVKISCKASGYSFTAYYIHWVKQAPGQGLEWIGYISSYNGATNYNQKFKGRVTFTTDTSTSTAYMELRSLRSDDTAVYYCARDYDYDVGMDYWGQGTLVTVSSASTKGPSVFPLAPCSRSTSESTAALGCLVKDYFPEPVTVSWNSGALTSGVHTFPAVLQSSGLYSLSSVVTVPSSNFGTQTYTCNVDHKPSNTKVDKTVERKCCVECPPCPAPPVAGPSVFLFPPKPKDTLMISRTPEVTCVVVDVSHEDPEVQFNWYVDGVEVHNAKTKPREEQFNSTFRVVSVLTVVHQDWLNGKEYKCKVSNKGLPAPIEKTISKTKGQPREPQVYTLPPSREEMTKNQVSLTCLVEGFYPSDIAVEWESNGQPENNYKTTPPMLDSDGSFFLYSELTVDKSRWQQGNVFSCSVMHEALHNHYTQKSLSLSPGK
light: DIVMTQSPDSLAVSLGERATISCRASESVDNYGISFMKWFQQKPGQPPKLLIYAASNQGSGVPDRFSGSGSGTDFTLTISSLQAEDVAVYYCQQSKEVPWTFGGGTKVEIKRTVAAPSVIFPPSDEQLKSGTASVVCLLNNFYPREAKVQWKVDNALQSGNSQESVTEQDSKDSTYSLSSTLTLSKADYEKHKVYACEVTHQGLSSPVTKSFNRGEC

Kd [1]: 12.5 nM
B3: anti-VEGF/anti-DLL4 bispecific antibody 219R45-MB-21R79 (bispecific antibody, human IgG2)
heavy 1: B2 heavy 1
heavy 2: B2 heavy 2 with S52A, S53N, G56R
light: B2 light

EC50 (read off the curve) (biotin-DLL4-hFc): ~0.7 ng/mL
EC50 (read off the curve) [2]: ~0.7 ng/mL
B4: anti-VEGF/anti-DLL4 bispecific antibody 219R45-MB-21R75 (bispecific antibody, human IgG2)
heavy 1: B2 heavy 1
heavy 2: B2 heavy 2 with S52A, S53G, N55K, G56D
light: B2 light
notes: Monovalent/bispecific IgG2 heterodimer
